# Source: article PMC9636267 (2022)
# Substitutions are numbered along the chain they refer to.
# T1: HCoV-229E S ectodomain (17–1115 aa), 229E S trimer (human coronavirus 229E, UniProt P15423 17-1115)
# T1 chain: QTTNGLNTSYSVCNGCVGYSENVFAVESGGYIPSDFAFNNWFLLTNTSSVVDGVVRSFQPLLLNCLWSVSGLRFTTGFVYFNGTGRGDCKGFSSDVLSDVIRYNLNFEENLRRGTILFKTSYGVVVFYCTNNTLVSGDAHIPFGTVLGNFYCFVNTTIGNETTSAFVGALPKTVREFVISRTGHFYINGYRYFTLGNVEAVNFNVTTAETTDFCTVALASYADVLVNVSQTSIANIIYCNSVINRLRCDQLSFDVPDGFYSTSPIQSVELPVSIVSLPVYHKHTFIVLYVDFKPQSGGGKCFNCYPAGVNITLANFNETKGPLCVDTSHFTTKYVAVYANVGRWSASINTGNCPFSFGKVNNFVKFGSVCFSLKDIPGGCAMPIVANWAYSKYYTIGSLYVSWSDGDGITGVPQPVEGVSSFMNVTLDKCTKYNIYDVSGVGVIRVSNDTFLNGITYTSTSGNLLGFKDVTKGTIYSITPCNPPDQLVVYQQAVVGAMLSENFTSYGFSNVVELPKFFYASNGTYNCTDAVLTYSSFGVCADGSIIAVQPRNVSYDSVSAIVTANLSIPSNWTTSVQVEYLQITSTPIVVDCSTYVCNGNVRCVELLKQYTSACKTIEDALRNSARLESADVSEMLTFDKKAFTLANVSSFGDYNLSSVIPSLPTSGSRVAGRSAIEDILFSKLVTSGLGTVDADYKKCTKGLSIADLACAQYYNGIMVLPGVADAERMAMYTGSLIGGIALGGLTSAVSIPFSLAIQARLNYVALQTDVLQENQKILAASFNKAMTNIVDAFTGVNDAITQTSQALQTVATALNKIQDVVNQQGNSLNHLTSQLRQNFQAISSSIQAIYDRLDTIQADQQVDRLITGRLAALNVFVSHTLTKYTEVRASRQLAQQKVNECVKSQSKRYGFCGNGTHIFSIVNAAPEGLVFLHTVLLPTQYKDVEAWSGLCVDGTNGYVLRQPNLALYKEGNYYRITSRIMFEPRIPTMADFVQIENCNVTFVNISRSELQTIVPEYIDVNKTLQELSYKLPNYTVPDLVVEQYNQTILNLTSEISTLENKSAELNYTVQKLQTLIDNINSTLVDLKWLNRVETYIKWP
# T2: HCoV-229E S1 subunit (17–560 aa) (human coronavirus 229E, UniProt P15423 17-560)
# T2 chain: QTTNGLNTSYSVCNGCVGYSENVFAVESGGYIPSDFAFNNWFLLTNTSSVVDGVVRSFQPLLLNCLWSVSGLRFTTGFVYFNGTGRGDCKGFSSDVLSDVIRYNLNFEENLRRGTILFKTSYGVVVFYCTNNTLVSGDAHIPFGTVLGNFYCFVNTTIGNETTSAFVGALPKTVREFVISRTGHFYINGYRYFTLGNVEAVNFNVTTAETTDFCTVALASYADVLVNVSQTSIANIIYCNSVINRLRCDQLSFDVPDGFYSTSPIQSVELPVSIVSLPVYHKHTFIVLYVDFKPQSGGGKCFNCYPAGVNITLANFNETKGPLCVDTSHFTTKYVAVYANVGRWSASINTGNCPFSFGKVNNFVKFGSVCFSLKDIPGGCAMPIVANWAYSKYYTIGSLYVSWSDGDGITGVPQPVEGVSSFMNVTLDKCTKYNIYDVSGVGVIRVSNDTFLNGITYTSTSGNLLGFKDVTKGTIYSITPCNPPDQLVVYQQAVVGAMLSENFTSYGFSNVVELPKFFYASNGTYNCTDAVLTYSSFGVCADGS
# T3: HCoV-229E NTD (17–265 aa) (human coronavirus 229E, UniProt P15423 17-265)
# T3 chain: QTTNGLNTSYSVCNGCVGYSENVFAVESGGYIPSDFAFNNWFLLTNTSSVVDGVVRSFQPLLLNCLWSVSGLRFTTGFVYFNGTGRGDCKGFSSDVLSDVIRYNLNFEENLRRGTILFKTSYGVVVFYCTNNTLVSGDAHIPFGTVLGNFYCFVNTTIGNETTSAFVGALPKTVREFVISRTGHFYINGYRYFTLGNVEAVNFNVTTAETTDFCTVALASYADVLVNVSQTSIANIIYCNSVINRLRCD
# B1: Fab A11 (Fab, V domains shown)
# VH: EVQLVESGGGLVQPGGSLRLSCAASGFNIYSSYIHWVRQAPGKGLEWVASISSSYGYTYYADSVKGRFTISADTSKNTAYLQMNSLRAEDTAVYYCARGHGWAYVWSSYYPAGAFALDYWGQGTLVTVSS
# VL: DIQMTQSPSSLSASVGDRVTITCRASQSVSSAVAWYQQKPGKAPKLLIYSASSLYSGVPSRFSGSRSGTDFTLTISSLQPEDFATYYCQQSYALITFGQGTKVEIK
# B2: Fab B10 (Fab, V domains shown)
# VH: EVQLVESGGGLVQPGGSLRLSCAASGFNLSSSSMHWVRQAPGKGLEWVAYIYPSYSSTYYADSVKGRFTISADTSKNTAYLQMNSLRAEDTAVYYCARASGHFWAYGFDYWGQGTLVTVSS
# VL: DIQMTQSPSSLSASVGDRVTITCRASQSVSSAVAWYQQKPGKAPKLLIYSASSLYSGVPSRFSGSRSGTDFTLTISSLQPEDFATYYCQQYSYSGPFTFGQGTKVEIK
# B3: Fab D04 (Fab, V domains shown)
# VH: EVQLVESGGGLVQPGGSLRLSCAASGFNLSSYYIHWVRQAPGKGLEWVASISPYSSSTYYADSVKGRFTISADTSKNTAYLQMNSLRAEDTAVYYCARWYSPSYGWYWPYASGAGGLDYWGQGTLVTVSS
# VL: B2 VL with Y91S, Y93P, S94H, G95Y, P96L, F97I
# B4: Fab B09 (Fab, V domains shown)
# VH: EVQLVESGGGLVQPGGSLRLSCAASGFNLSYSSIHWVRQAPGKGLEWVAYIYPYYGSTYYADSVKGRFTISADTSKNTAYLQMNSLRAEDTAVYYCARSWSPSSSYPGYGGLDYWGQGTLVTVSS
# VL: DIQMTQSPSSLSASVGDRVTITCRASQSVSSAVAWYQQKPGKAPKLLIYSASSLYSGVPSRFSGSRSGTDFTLTISSLQPEDFATYYCQQSWSYYGSLFTFGQGTKVEIK
# B5: Fab A01 (Fab, V domains shown)
# VH: EVQLVESGGGLVQPGGSLRLSCAASGFNISSSYIHWVRQAPGKGLEWVASIYSYYSSTSYADSVKGRFTISADTSKNTAYLQMNSLRAEDTAVYYCARGGYAFYGYGSPHSWYALDYWGQGTLVTVSS
# VL: B4 VL with S91W, S93P, Y94G, Y95S, G96W, S97G, L98P, F99I
# B6: Fab A10 (Fab, V domains shown)
# VH: EVQLVESGGGLVQPGGSLRLSCAASGFNISSYYMHWVRQAPGKGLEWVAYISPYSGYTYYADSVKGRFTISADTSKNTAYLQMNSLRAEDTAVYYCARAHYPYHGSYWGLDYWGQGTLVTVSS
# VL: DIQMTQSPSSLSASVGDRVTITCRASQSVSSAVAWYQQKPGKAPKLLIYSASSLYSGVPSRFSGSRSGTDFTLTISSLQPEDFATYYCQQAGYVPITFGQGTKVEIK
# Target: T1, HCoV-229E S ectodomain (17–1115 aa), …
# Assay: SPR
row,Binder,koff
1,B1,0.0034 s⁻¹
2,B2,0.00044 s⁻¹
3,B3,0.0012 s⁻¹
4,B4,0.00015 s⁻¹
5,B5,0.0017 s⁻¹
6,B6,0.00021 s⁻¹

# Target: T2, HCoV-229E S1 subunit (17–560 aa)
# Assay: SPR
row,Binder,koff
1,B1,0.0018 s⁻¹
2,B2,0.00031 s⁻¹
3,B3,0.0012 s⁻¹
4,B4,0.00064 s⁻¹
5,B5,0.00068 s⁻¹
6,B6,0.00083 s⁻¹

# Target: T3, HCoV-229E NTD (17–265 aa)
# Assay: SPR
row,Binder,koff
1,B1,0.004 s⁻¹
2,B2,0.00069 s⁻¹
3,B3,0.0026 s⁻¹
4,B4,0.00037 s⁻¹
5,B5,0.00076 s⁻¹
6,B6,0.0015 s⁻¹

# Target: T2, HCoV-229E S1 subunit (17–560 aa)
# Assay: SPR
# Remark: another data set of the same source
row,Binder,Kd
1,B1,3.2 nM
2,B2,2.3 nM
3,B3,2 nM
4,B4,32 nM
5,B5,17 nM
6,B6,3.6 nM

# Target: T3, HCoV-229E NTD (17–265 aa)
# Assay: SPR
# Remark: another data set of the same source
row,Binder,Kd
1,B1,8.8 nM
2,B2,5.5 nM
3,B3,7.7 nM
4,B4,235 nM
5,B5,31 nM
6,B6,4.6 nM

# Target: T1, HCoV-229E S ectodomain (17–1115 aa), …
# Assay: SPR
# Remark: another data set of the same source
row,Binder,Kd
1,B1,9.4 nM
2,B2,2.5 nM
3,B3,2 nM
4,B4,33 nM
5,B5,32 nM
6,B6,6.3 nM
